This is an account of results in publication PMC5852006, “Microvillar and ciliary defects in zebrafish lacking an actin-binding bioactive peptide amidating enzyme” (Scientific Reports, 2018).

The assay has as its target Filamentous actin, pre-formed actin filaments derived from rabbit skeletal muscle (rabbit, UniProt P68135 1-377). Nature of the assay: co-sedimentation; F-actin spin-down; constant 0.5 μM F-actin with varying concentrations of PAM-CD; PAM-CD in supernatants and pellets by electrophoretic analysis; Scatchard analysis of three experiments. To be noted: both partners purified.

B1: Peptidylglycine α-amidating monooxygenase cytosolic C-terminal domain, recombinant rat PAM(898–976) (domain or fragment)
chain: FGDHDRKLESSSGRVLGRFRGKGSGGLNLGNFFASRKGYSRKGFDRVSTEGSDQEKDEDDGTESEEEYSAPLPKPAPSS
notes: Peptidylglycine alpha-amidating monooxygenase (PAM), rat, cytosolic C-terminal domain, residues 898-976; no tag is mentioned; also called PAM-CD; rat PAM-CD; source: E. coli BL21(DE3), pET-11CD vector, purified
On to B1, for which the Kd – broadly, the equilibrium constant for the complex coming apart – was found to be 600 nM.
